Target: radial spoke protein 9 (RSP9) (C. reinhardtii)
Experiment: cryo-EM structure

- stoichiometry N: 2
Substance: radial spoke protein 9 (RSP9) (natural protein)
